According to patent US11629364B2, “Methods for synthesizing anticoagulant polysaccharides” (OPTIMVIA, LLC, priority 2019, dated 2023):
Residue numbers refer to the chain shown, from its start.

B1: SEQ ID NO: 59: full-length mutant of isoform 3 of the mouse 6OST enzyme, SEQ ID NO: 18 mutations (protein)
chain: MDERFNKWLLTPVLTLLFVVIMYQYVSPSCTSSCTNFGEQLRSGEARPPAVPSPARRAQAPLDEWERRPQLPPPPRGPPEGSRGVAAPEDEDEDPGDPEEEEEEEEEEPDPEAPENGSLPRFVPRFNFTLKDLTRFVDFNIKGRDVIVFLHIGHTGGTTFGRHLVKNIRLEQPCSCKAGQKKCTCHRPGKKETWLFSRFSTGWSCGTNADWTELTNCVPAIMEKKDCPRNHSHTRNFYYITMLRDPVSRYLGGWKHHQRGGTNKTSLHMCDGRSPTPDELPTCYPGDDWSGVSLREFMDCSYNLANNRQVRMLADLSLVGCYNLTFMNESERNTILLQSAKNNLKNMAFFGLTEFQRKTQFLFERTFNLKFISPFTQVNITRASNVDINDGARQHIEELNFLDMQLYEYAKDLFQQRYHHTKQLEHQRDRQKRREERRLQREHRAHRWPKEDRAMEGTVTEDYNSQVVRW
modifications: Amino acid sequence encoding for engineered arylsulfate-dependent 6-O-sulfotransferase variant 12
B2: SEQ ID NO: 60: full-length mutant of isoform 3 of the mouse 6OST enzyme, SEQ ID NO: 20 mutations (protein)
chain: B1 chain with N208R, G252S, G253H, H257T, T262A, S266G, A305G, V378F
modifications: Amino acid sequence encoding for engineered arylsulfate-dependent 6-O-sulfotransferase variant 13
B3: SEQ ID NO: 61: full-length mutant of isoform 3 of the mouse 6OST enzyme, SEQ ID NO: 22 mutations (protein)
chain: B1 chain with T207S, N208H, G252S, T262A, A305G, V378F
modifications: Amino acid sequence encoding for engineered arylsulfate-dependent 6-O-sulfotransferase variant 13
B4: SEQ ID NO: 49: mutant of the full-length pig 6OST enzyme, SEQ ID NO: 20 mutations (protein)
chain: MRRRRAGSRTMVERASKFVLVVAGSACFMLILYQYAGPGLSLGAPGGRAPPDDLDLFPTPDPHYEKKYYFPVRELERSLHFDMKGDDVIVFLHIGHTGGTTFGRHLVQNVRLEVPCDCRPGQKKCTCYRPNRRETWLFSRFSTGWSCGTRADWTELTNCVPGVLDRRDPAALRTPRKFYYITLLRDPVSRYLSHWRHTQRGGANKTGLHMCDGRTPTPEELPPCYEGTDWSGCTLQEFMDCPYNLGNNRQVRMLADLSLVGCYNLSFIPEGKRSQLLLESAKKNLRGMAFFGLTEFQRKTQYLFERTFNLKFIRPFMQYNSTRAGGVEVGEDTIRRIEELNDLDMQLYDYARDLFQQRYQYKRQLERRQQRLRSREERLLHRAKEAPPRGDTEEPGRVPTEDYMSHIIEKW
modifications: Amino acid sequence encoding for engineered arylsulfate-dependent 6-O-sulfotransferase variant 10
B5: SEQ ID NO: 50: mutant of the full-length pig 6OST enzyme, SEQ ID NO: 22 mutations (protein)
chain: B4 chain with T149S, R150H, H194G, T198H, G207S
modifications: Amino acid sequence encoding for engineered arylsulfate-dependent 6-O-sulfotransferase variant 11

Assay: 6OST activity: 6-O sulfated products detected by LCMS after lyase digestion
Assay type: biochemical
Conditions: procedures of Example 4; expected
Protocol: A study was conducted in accordance with embodiments of the present disclosure to confirm 6OST activity of enzymes comprising the amino acid sequence of SEQ ID NO: 18, SEQ ID NO: 20, or SEQ ID NO: 22 by detecting the presence of 6-O sulfated polysaccharide products as a result of their sulfotransfer reaction, using a similar LCMS procedure as in Example 3, except that the sulfo acceptor polysaccharide was prepared by chemically 6-O desulfating commercially available heparin (CAS code: 9041-08-1, available from Millipore Sigma), according to the procedure provided by Kariya, Y., et al., (2000) J. Biol. Chem. 275 (34):25949-25958).

Row | Molecule | 6OST activity: N,2,6-HS products by MS
1 | B1 | confirm the presence of N,2,6-HS products
2 | B2 | confirm the presence of N,2,6-HS products
3 | B3 | confirm the presence of N,2,6-HS products
4 | B4 | confirm the presence of N,2,6-HS products
5 | B5 | confirm the presence of N,2,6-HS products
